# B1: Bunyamwera virus (BUNV) nucleocapsid protein (NP) (natural protein)
# chain: MIELEFHDVAANTSSTFDPEVAYANFKRVHTTGLSYDHIRIFYIKGREIKTSLAKRSEWEVTLNLGGWKITVYNTNFPGNRNNPVPDDGLTLHRLSGFLARYLLEKMLKVSEPEKLIIKSKIINPLAEKNGITWNDGEEVYLSFFPGSEMFLGTFRFYPLAIGIYKVQRKEMEPKYLEKTMRQRYMGLEAATWTVSKLTEVQSALTVVSSLGWKKTNVSAAARDFLAKFGINM
# notes: Nucleocapsid protein (NP) of Bunyamwera virus, as it stands in native ribonucleoproteins (RNPs) with the genomic RNA; NP stands in the RNP as a helical polymer wrapped around viral genomic RNA (S, M, L segments); about 3.7 NP per helical turn; The number of copies depends on the segment; also called BUNV NP; nucleoprotein; source: native RNPs purified from BUNV virions propagated in BHK-21 cells …
# Molecular target: the molecule itself
# Test: cryo-EM structure; native BUNV RNPs purified from virions, TNE with 25 mM NaCl; cryo-ET sub-tomogram average (20 Å) used as reference for a single-particle average with helical symmetry at 13 Å; 'split' NP from PDB 3ZLA fitted flexibly by molecular dynamics (MDFF)
protein,measurement,value
B1,binding result,binds

# From publication doi:10.1101/2021.10.27.466080, “The structure of a native orthobunyavirus ribonucleoprotein reveals a key role for viral RNA in maintaining its helical architecture” (bioRxiv, 2021)
